Patent US20240301052A1 (LANOVA MEDICINES DEVELOPMENT, published 2024)
Like-named read-outs stand apart in the source and are kept apart here.

T1: human SLC34A2 (human, UniProt O95436 1-690)
T1 construct: whole, on cells; also called human solute carrier 34 A2; NaPi2b
T1 sequence (looked up): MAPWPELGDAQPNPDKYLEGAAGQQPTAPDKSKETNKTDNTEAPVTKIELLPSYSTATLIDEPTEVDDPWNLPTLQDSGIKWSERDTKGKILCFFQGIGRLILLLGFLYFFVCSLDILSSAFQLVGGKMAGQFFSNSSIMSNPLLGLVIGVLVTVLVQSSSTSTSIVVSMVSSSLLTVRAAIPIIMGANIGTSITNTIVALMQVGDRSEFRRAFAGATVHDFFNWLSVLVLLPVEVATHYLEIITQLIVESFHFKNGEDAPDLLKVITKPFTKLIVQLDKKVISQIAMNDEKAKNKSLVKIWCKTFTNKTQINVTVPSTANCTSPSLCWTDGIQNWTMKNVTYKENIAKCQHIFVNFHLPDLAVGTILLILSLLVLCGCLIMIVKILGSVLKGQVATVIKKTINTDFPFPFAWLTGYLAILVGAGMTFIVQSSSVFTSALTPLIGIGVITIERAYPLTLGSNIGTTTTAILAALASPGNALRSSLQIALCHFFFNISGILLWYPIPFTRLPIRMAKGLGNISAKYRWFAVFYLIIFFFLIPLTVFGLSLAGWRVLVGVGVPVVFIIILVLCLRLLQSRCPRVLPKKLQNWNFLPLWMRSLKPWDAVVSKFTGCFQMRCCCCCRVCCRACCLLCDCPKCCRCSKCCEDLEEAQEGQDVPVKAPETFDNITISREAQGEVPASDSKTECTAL

T2: mouse SLC34A2 (mouse, UniProt Q9DBP0 1-697)
T2 construct: whole, on cells
T2 sequence (looked up): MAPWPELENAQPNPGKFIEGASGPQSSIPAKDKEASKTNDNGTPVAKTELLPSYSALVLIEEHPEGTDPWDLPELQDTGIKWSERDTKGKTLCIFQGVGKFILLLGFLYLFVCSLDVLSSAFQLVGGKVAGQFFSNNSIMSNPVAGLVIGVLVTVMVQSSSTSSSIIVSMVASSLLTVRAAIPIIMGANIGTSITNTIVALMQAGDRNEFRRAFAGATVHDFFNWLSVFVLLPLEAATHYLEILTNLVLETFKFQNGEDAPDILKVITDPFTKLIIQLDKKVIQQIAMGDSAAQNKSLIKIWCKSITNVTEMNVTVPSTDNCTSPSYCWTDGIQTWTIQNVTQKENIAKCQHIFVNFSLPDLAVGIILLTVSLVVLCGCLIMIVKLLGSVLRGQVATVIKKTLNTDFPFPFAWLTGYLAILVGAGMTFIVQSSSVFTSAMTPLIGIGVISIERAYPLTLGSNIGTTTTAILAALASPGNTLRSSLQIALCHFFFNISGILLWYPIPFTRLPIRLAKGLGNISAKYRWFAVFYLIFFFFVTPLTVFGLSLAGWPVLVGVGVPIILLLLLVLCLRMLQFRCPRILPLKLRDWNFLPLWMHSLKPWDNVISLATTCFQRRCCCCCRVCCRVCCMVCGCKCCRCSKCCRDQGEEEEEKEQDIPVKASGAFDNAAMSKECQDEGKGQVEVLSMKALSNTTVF

T3: Rhesus SLC34A2 (Rhesus, UniProt F7HDA3 1-690)
T3 construct: whole, on cells
T3 sequence: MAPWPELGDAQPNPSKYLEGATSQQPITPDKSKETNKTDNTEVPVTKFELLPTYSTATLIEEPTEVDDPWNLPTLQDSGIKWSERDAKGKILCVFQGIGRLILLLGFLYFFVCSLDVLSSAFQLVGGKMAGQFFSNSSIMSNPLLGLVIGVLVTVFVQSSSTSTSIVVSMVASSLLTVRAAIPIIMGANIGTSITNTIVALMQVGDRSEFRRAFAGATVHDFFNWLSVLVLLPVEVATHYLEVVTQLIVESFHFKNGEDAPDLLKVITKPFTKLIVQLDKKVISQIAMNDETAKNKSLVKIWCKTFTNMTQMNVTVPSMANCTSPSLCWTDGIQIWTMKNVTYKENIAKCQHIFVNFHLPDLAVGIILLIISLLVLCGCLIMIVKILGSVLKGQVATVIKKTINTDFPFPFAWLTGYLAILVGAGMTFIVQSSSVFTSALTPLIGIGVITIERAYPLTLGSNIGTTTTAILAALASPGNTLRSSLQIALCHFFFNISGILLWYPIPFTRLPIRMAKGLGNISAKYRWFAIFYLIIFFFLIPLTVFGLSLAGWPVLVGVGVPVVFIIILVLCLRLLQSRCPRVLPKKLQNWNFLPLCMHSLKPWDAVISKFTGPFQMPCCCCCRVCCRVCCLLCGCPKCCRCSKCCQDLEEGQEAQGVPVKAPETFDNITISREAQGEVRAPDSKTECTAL


Key:
human SLC34A2 [1] = biological target: T1, human SLC34A2; assay: FACS, OVCAR3 cells
Outline: (§1)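 Flow cytometric read-out of bound humanized antibody, detected with a fluorescent conjugated secondary antibody. Cells (transfected HEK293/H_SLC34A2, OVCAR3, RMG-1) were exposed to antibody for 60 minutes at 4° C. before washing and 30-minute secondary staining at 4° C.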

human SLC34A2 [2] = biological target: T1, human SLC34A2; assay: FACS, HEK293/human SLC34A2 cells
mouse SLC34A2 = biological target: T2, mouse SLC34A2; assay: FACS, HEK293/Mouse SLC34A2 cells
human SLC34A2 [3] = biological target: T1, human SLC34A2; assay: FACS, HEK293/human SLC34A2 cells; remark: listed apart in the source
Outline: as §1

human SLC34A2 [4] = biological target: T1, human SLC34A2; assay: cell-based or functional assay
Rhesus SLC34A2 [5] = biological target: T3, Rhesus SLC34A2; assay: FACS, HEK293/Rhesus SLC34A2 cells
human SLC34A2 [6] = biological target: T1, human SLC34A2; assay: FACS, RMG-1 cells
Outline: as §1

Rhesus SLC34A2 [7] = biological target: T3, Rhesus SLC34A2; assay: FACS, HEK293/Rhesus SLC34A2 cells; remark: listed apart in the source
human SLC34A2 [8] = biological target: T1, human SLC34A2; assay: FACS, OVCAR3 cells; remark: listed apart in the source
Description: The binding of these humanized antibodies to OVCAR3 cells was evaluated as described above, and the results are shown in FIG. 12A-D and Tables 16A-D.

Row | Binder | EC50 (human SLC34A2 [1]) | Top (human SLC34A2 [1]) | EC50 (human SLC34A2 [2]) | EC50 (mouse SLC34A2) | EC50 (human SLC34A2 [3]) | Top (human SLC34A2 [3]) | ADCC reporter EC50 (human SLC34A2 [4]) | ADCC reporter Top (MFI) (human SLC34A2 [4]) | EC50 (Rhesus SLC34A2 [5]) | Top (MFI) (Rhesus SLC34A2 [5]) | EC50 (human SLC34A2 [6]) | Top (human SLC34A2 [6]) | EC50 (Rhesus SLC34A2 [7]) | Top (MFI) (Rhesus SLC34A2 [7]) | EC50 (human SLC34A2 [8]) | Top (MFI) (human SLC34A2 [8])
1 | 91C9F1.p1.z7 hIgG1 (antibody, V domains shown, humanized hIgG1) VH: QVQLVQSGAEVKKPGSSVKVSCKTSGFFFTEYIIHWVRQAPGQGLEWIGGIIPNNDVTNYKQNFRGRVTLTADKSTSTAYMELSSLRSEDTAVYYCARWRNAYYSAMDSWGQGTTVTVSS VL: DIQVTQSPSSLSTSVGDRVTITCTASQDVGTAVAWYQQKPGKSPKLLIYWASTRHTGVPERFTGSGSGTDFTLTISSVQPEDVATYFCQQYRTSPLTFGVGTKVEIK | 2.41 nM | 20500 MFI | 2.72 nM | 3.34 nM | 1.67 nM | 37400 MFI | 2.12 nM | 124000 MFI | 4.2 nM | 9500 MFI | 2.25 nM | 9720 MFI | – | – | – | –
2 | 63A11D5B4.p1.z9 hIgG1 (antibody, V domains shown, humanized hIgG1) VH: QVQLVQSGAEVVKPGASVKMSCKTSGYTFITYNMHWVRQAPGQGLEWIGAIYPGSGDTSYNQKFKGRVTLTADKSTSTAYMELSSLRSEDTAVYYCSISTIITTGAVDYWGQGTLVTVSS VL: DIQMTQSPSSLSASVGDRVTITCKASQDVGTAVAWYQQKPGKVPKLLIYWTSTRHTGVPSRFSGSGSGTDFTLTISSLQPEDVATYYCQQYSRIPLTFGGGTKVEIK | 9.12 nM | – | 5.87 nM | 5.38 nM | 5.49 nM | 36800 MFI | 1.69 nM | 116000 MFI | 1.6 nM | 11800 MFI | 28.3 nM | 12200 MFI | – | – | – | –
3 | xi30H9B8F9 hIgG1 (antibody, V domains shown, chimeric, hIgG1) VH: QVQLQQPGAELVKPGASVKMSCKTSGYTFTTNNMHWVKQTPGQGLEWIGAIYPGNGATAYNQKFKGKATLTADKSSSTAYMQLSSLTSEASAVYYCARGMYGHGAMDYWGQGTSVIVSS VL: DIVMTQSHKFMSRSVGDRVRITCKASQDVGTAVAWYQQKPGQSPKLLIYWATTRHSGVPDRFTGSGSGTDFIFTISNVQSEDLADYFCQQYSSNPLTFGAGTKLELK | 0.74 nM | – | – | – | 1.63 nM | 40800 MFI | 1.26 nM | 109000 MFI | 0.9 nM | 17400 MFI | 1.19 nM | 11500 MFI | 1.9 nM | 47900 MFI | 1.19 nM | 29300 MFI
4 | xi91C9F1 hIgG1 (antibody, V domains shown, chimeric, hIgG1) VH: EVQLQQSGPELVKPGTSVKISCKTSGFFFTEYIIHWVKQSHGRSLEWIGGIIPNNGVTNYKQNFRGKAALTADKSSNTAYMELRSLTSEDSAVYYCARWRNGYYSAMDSWGQGTSVTVSS VL: DIVVTQSHKFMSTSLGDRVSITCTASQDVGTAVAWYQQKPGHSPKLLIYWASTRHTGVPERFTGSGSGTDFTLTITNVQSEDLADYFCQQYRTSPLTFGVGTKLELK | 2.5 nM | 21000 MFI | – | – | 1.77 nM | 32100 MFI | 1.96 nM | 133000 MFI | 1.2 nM | 11400 MFI | 1.76 nM | 9730 MFI | 3.9 nM | 15500 MFI | – | –
5 | 62G10E4G8.p3.z15 hIgG1 (antibody, V domains shown, humanized hIgG1) VH: QVQLVQSGAEVVKPGASVKMSCKASGYTFPSYITHWVKQAPGQGLEWIGAIYPGNADTSYIQKFKGRATLTADKSTSTAYMELSSLRSEDTAVYYCARGTYGTSAWFTYWGQGTLVTVSS VL: EIVLTQSPATLSVSPGERATLSCRARQNIGNNLYWYQQKPGQSPRLLIKYASQSISGIPSRFSGSGSGTDFTLTISSLQSEDFAVYFCQQSFSWPLTFGQGTKLEIK | 3.76 nM | – | 2.86 nM | 5.74 nM | 2.34 nM | 33600 MFI | 5.39 nM | 123000 MFI | 1.4 nM | 14400 MFI | 3.69 nM | 10800 MFI | – | – | 3.76 nM | 27300 MFI

Further lines, results first:

Row | EC50 (human SLC34A2 [1]) | Top (human SLC34A2 [1]) | EC50 (human SLC34A2 [2]) | EC50 (mouse SLC34A2) | EC50 (human SLC34A2 [3]) | Top (human SLC34A2 [3]) | ADCC reporter EC50 (human SLC34A2 [4]) | ADCC reporter Top (MFI) (human SLC34A2 [4]) | EC50 (Rhesus SLC34A2 [5]) | Top (MFI) (Rhesus SLC34A2 [5]) | EC50 (human SLC34A2 [6]) | Top (human SLC34A2 [6]) | EC50 (Rhesus SLC34A2 [7]) | Top (MFI) (Rhesus SLC34A2 [7]) | EC50 (human SLC34A2 [8]) | Top (MFI) (human SLC34A2 [8]) | Binder
6 | 10.5 nM | – | – | – | 5.21 nM | 35600 MFI | – | – | 2.3 nM | 15200 MFI | 14.4 nM | 11200 MFI | 4.6 nM | 45500 MFI | – | – | xi63A11D5B4 hIgG1 (antibody, V domains shown, chimeric, hIgG1) VH: QVQLQQPGAELVKPGASVKMSCRTSGYTFITYNMHWVKQTPGQGREWIGAIYPGNGDTSYNQKFKGKATLTADKSSSTAYMQLNSLTSEDSAVYYCSISTIITTGAVDYWGQGTSVTVAS VL: DIVMTQSHKFMSTSVGDRVSITCKASQDVGTAVAWYQQKAGQSPKLLIYWTSTRHTGVPDRFTGSGSGTDFTLIIRSLQSEDLADYFCQQYSRIPLTFGSGTKLEIK
7 | 0.94 nM | – | 2.4 nM | 2.06 nM | 1.55 nM | 35200 MFI | 0.72 nM | 135000 MFI | 0.7 nM | 16000 MFI | 1.39 nM | 10900 MFI | – | – | 1.43 nM | 26900 MFI | 30H9B8F9.p1.z5 hIgG1 (antibody, V domains shown, humanized hIgG1) VH: QVQLVQSGAEVKKPGASVKVSCKTSGYTFTTNNMHWVRQAPGQGLEWIGAIYPGSGATAYNQKFKGRVTMTADTSTSTVYMELSSLRSEDTAVYYCARGMYGHGAMDYWGQGTLVTVSS VL: DIQLTQSPSFLSASVGDRVTITCKASQDVGTAVAWYQQKPGKAPKLLIYWATTRHSGVPSRFSGSGSGTEFTLTISSLQPEDFATYYCQQYSSNPLTFGQGTKLEIK
8 | 3.73 nM | – | – | – | 4.26 nM | 32700 MFI | 4.56 nM | 101000 MFI | 1.8 nM | 13300 MFI | 7.97 nM | 11300 MFI | 3.7 nM | 39100 MFI | 3.73 nM | 27600 MFI | xi62G10E4G8 hIgG1 (antibody, V domains shown, chimeric, hIgG1) VH: QVQLQQSGAEVVKPGASVKMSCKASGYTFPSYITHWVKQTPGQGLEWIGAIYPGNGDTSYIQKFKGKATLTADKSSSTAYMQLSSLTSEDSAVYYCARGTYGTSAWFTYWGQGTLVTVSA VL: DIVLTQSPATLSVTPGDSVSLSCRARQNIGNNLYWYQQKSHESPRLLIKYASQSISGIPSRFSGSGSGTDFTLTINSVETEDFGVYFCQQSFSWPLTFGAGTKLELK
